In PMC11093611:

Target: T1, rCf48 (recombinant Flag-Cf48 micropeptide) (mouse, UniProt Q3UR78 29-90)
T1 sequence: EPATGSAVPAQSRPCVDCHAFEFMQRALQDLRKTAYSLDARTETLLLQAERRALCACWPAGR
Experiment: EMSA; Thermo LightShift Chemiluminescent RNA EMSA kit (20158); buffer, salt, pH and temperature not given in the material
Settings: protein: recombinant; tags: FLAG (Fc tag removed with enterokinase); label: biotin

B1: Serpine1 mRNA 3'-most 134 nt WT probe (ssRNA)
RNA: CCAAAUGUGGGGUCACAUGGUCUUGAAUUUUGUGGGGUACAUAUGCCUUUGUUUGUUUGUUUUCACUUUUGAUAUAUAAACAGGUAAAUGUGUUUUUAAAAAAUAAUAAAAAUAGAGAAUAUGCAGACAAAAAAA
B1: binds.

B2: Acta2 mRNA 3'-most 132 nt WT probe (ssRNA)
RNA: GGUGACCAGAUAGGUAAAAAACAAUUUUACGUGUAUUUAAAAUUUGGCAAGUAAUAUGGUUUUAUUAAAAUCACAUCUUUUGUAUUAAAGCAUACACACGUGCAUGGAUAUGCAUGCGUGACUUUUAACUUG
B2: binds.
